Measurements from patent publication US20260226168A1.

Experiments:
hGPRC5D [1] = target: hGPRC5D (UniProt Q9NZD1); assay: flow cytometry on RPMI-8226 cells; negative control (EC50 '/': curve could not be fitted)
hGPRC5D [2] = target: hGPRC5D (UniProt Q9NZD1); assay: flow cytometry on NCI-H929 cells; negative control (EC50 '/': curve could not be fitted)
hGPRC5D [3] = target: hGPRC5D (UniProt Q9NZD1); assay: flow cytometry on MM.1S cells; negative control (EC50 '/': curve could not be fitted)

Chain of hGPRC5D (Q9NZD1 whole entry): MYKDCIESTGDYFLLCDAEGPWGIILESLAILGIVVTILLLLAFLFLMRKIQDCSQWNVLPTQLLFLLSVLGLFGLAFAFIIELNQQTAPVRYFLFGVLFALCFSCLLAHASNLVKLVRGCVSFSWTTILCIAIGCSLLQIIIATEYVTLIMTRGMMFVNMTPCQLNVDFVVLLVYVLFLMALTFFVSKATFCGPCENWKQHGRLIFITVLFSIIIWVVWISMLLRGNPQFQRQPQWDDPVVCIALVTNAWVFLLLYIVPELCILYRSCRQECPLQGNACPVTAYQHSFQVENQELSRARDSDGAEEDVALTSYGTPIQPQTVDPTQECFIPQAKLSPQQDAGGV

Top(MFI) (hGPRC5D [1]): 3860 | Top(MFI) (hGPRC5D [2]): 4180 | Top(MFI) (hGPRC5D [3]): 6770
Substance: hIgG1 monoclonal antibody (Biointron, Cat. No. B117901)
